B1: hRANKL: human RANKL (hRANKL) (catalogue number: 310-01 from Peprotech, London, UK) (protein, UniProt O14788 69-317, looked up)
extracellular domain: YFRAQMDPNRISEDGTHCIYRILRLHENADFQDTTLESQDTKLIPDSCRRIKQAFQGAVQKELQHIVGSQHIRAEKAMVDGSWLDLAKRSKLEAQPFAHLTINATDIPSGSHKVSLSSWYHDRGWAKISNMTFSNGKLIVNQDGFYYLYANICFRHHETSGDLATEYLQLMVYVTKTSIKIPSSHTLMKGGSTKYWSGNSEFHFYSINVGGFFKLRSGEEISIEVSNPSLLDPDQDATYFGAFKVRDID
modifications: extracellular domain
B2: RANKL: RANK ligand (RANKL), as used in cited studies (protein, UniProt O14788 140-317, looked up)
Tumor necrosis factor ligand …: IRAEKAMVDGSWLDLAKRSKLEAQPFAHLTINATDIPSGSHKVSLSSWYHDRGWAKISNMTFSNGKLIVNQDGFYYLYANICFRHHETSGDLATEYLQLMVYVTKTSIKIPSSHTLMKGGSTKYWSGNSEFHFYSINVGGFFKLRSGEEISIEVSNPSLLDPDQDATYFGAFKVRDID

Tests used:
Raw 264.7 cells [1] = test: TRAP staining / osteoclast morphology of Raw 264.7 cells on peptide-coated tissue culture plastic; assay type: cell-based
Method: Raw 264.7 cells were cultured and passaged as previously described. Cell adhesion to OP1_Hyp and OP1_Pro was assessed as shown by Barrow et al.. Briefly, 48-well plates were coated with 10 µg/mL of OSCAR-binding peptides overnight at 4 °C. The excess peptide was then removed by washing with PBS before adding 1% BSA to block non-specific binding sites for 1 h at 25 °C. Raw 264.7 cells were then resuspended at a concentration of 2 × 10^5 cells/mL and added to the well. Cells were cultured with different concentrations of human RANKL (hRANKL) (catalogue number: 310-01 from Peprotech, London, UK) (0–100 ng/mL) for up to 5 days to assess the contribution of the OSCAR-binding peptides OP1_Hyp and OP1_Pro to the differentiation of Raw 264.7 cells to mature OCs.
After 5 days of post-culture, Raw 264.7 cells were fixed in 4% PFA for 15 min at room temperature. TRAP was stained following the manufacturer’s protocol and evaluated by light microscopy (ThermoFisher, Swindon, UK). Multinucleated TRAP+ cells containing more than three nuclei were scored as mature OCs.

Raw 264.7 cells [2] = conditions: cited from earlier work

| Molecule | Differentiation, 1 ng/mL hRANKL (Raw 264.7 cells [1]; 5 days on TCP, 1 ng/mL hRANKL) | Average cell diameter of treated cells (Raw 264.7 cells [1]; 5 days, 100 ng/mL hRANKL, TCP with OP1_Hyp or OP1_Pro, untreated cells 38.1 ± 8.8 µm) | OSCAR and TRAP levels, 50 ng/mL RANKL only (Raw 264.7 cells [2]; days 1-4, ref Lampiasi et al. [35]) | Lowest optimal concentration for osteoclastic cell formation (Raw 264.7 cells [2]; ref Song et al. [29]) |
| --- | --- | --- | --- | --- |
| B1 | No differentiation was observed | 273.9 ± 73.4 µm |  |  |
| B2 |  |  | increased significantly between days 1 and 2 of culture before decreasing sharply on days 3 and 4 | 30 ng/mL |
